We go through five molecules from patent publication US20070105779A1, “Isolated, ssx-2 and ssx-2 related peptides useful as hla binders and ctl epitopes, and uses thereof” (priority 2002, published 2007).

Sequences and labels used below:
B1: … (SEQ ID NO: 5) (peptide)
peptide: AAAPKAFYA
modifications: not checked
B2: … (SEQ ID NO: 3) (peptide)
peptide: AAAAKIFYA
modifications: not checked
B3: … (SEQ ID NO: 1) (peptide)
peptide: AAAPKIFYA
modifications: not checked
B4: … (SEQ ID NO: 2) (peptide)
peptide: AAGPKIFYA
modifications: not checked
B5: … (SEQ ID NO: 4) (peptide)
peptide: AAAPAIFYA
modifications: not checked

The target in one assay is HLA-A2. In words: functional competition vs tyrosinase 368-376 on T2 cells; relative to SEQ ID NO: 17.
Molecule B1 had a Relative binding of 1.

With B2, the Relative binding was determined as 1.5.

B3 yielded a Relative binding of 10.

As to B4, the Relative binding was determined as 0.7.

Regarding B5, the Relative binding came to 9.

For the next assay, the target named is HLA-A2. Put plainly: functional competition vs tyrosinase 368-376 on T2 cells, readout lysis by CTL LAU 156/34; 50% inhibition.
One may read the IC50 as the concentration needed to halve the response being measured. As to B1, the IC50 amounted to 200 nM.

For the molecule B2, the IC50 is 133 nM.

The molecule B3 had an IC50 of 20 nM.

In turn, B4 returned an IC50 of 286 nM.

Consider B5, for which the IC50 amounted to 22 nM.

The next assay addresses HLA-A2. In words: functional competition vs tyrosinase 368-376 on T2 cells, readout lysis by CTL LAU 156/34; relative to SEQ ID NO: 1.
Turning to B1, the Relative binding turned out to be 0.1.

On to B2, for which the Relative binding amounted to 0.16.

Consider B3, for which the Relative binding was 1.

For the molecule B4, the Relative binding came to 0.07.

For B5, the Relative binding was determined as 0.9.
